From publication PMC4358367, “Structural basis of diverse membrane target recognitions by ankyrins” (eLife, 2014) come the findings set out here.

The target in assay [1] is T1, AnkG_repeats (24 ANK repeats of rat 190 kDa ankyrin-G, residues 38–855) (rat, UniProt O70511 38-855).
T1 construct: ankyrin-G (AnkG), rat, 190 kDa isoform used as template, ANK repeats, residues 38-855; also called AnkG ANK repeats; wild-type ANK repeats; source: E. coli BL21 (DE3), purified
T1 sequence (looked up): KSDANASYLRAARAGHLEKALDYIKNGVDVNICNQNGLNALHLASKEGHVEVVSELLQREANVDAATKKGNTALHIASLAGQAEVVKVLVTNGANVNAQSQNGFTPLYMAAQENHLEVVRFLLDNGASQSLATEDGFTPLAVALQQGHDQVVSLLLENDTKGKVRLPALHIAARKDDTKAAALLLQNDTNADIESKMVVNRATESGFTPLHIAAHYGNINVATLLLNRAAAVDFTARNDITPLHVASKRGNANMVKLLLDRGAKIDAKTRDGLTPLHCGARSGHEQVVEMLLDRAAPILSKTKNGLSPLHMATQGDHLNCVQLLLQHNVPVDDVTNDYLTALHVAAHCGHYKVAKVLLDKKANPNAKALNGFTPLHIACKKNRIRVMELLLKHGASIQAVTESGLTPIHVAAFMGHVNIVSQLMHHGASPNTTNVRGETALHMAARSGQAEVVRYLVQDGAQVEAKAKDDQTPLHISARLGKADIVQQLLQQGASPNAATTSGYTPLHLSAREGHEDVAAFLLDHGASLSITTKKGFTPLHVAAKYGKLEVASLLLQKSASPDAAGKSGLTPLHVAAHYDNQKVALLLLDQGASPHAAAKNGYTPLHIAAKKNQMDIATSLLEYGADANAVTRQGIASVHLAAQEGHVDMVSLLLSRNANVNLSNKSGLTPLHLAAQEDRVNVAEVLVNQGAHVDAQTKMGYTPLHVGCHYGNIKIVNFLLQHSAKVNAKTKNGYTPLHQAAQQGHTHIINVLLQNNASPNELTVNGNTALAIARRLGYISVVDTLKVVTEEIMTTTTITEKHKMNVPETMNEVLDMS
Nature of the assay: ITC; VP-ITC at 25°C; 50 mM Tris pH 7.5, 100 mM NaCl, 1 mM EDTA, 1 mM DTT; binding partner (AS, Nav1.2 ABD proteins, neurofascin ABD; 200–300 µM) in the syringe, ANK repeats (20–30 µM) in the cell; one-site binding model. To be noted: both partners purified. For orientation: In ITC the heat of successive injections is recorded.

In assay [2] the target is T2, AnkR_repeats (24 ANK repeats of ankyrin-R, residues 42–853) (mouse, UniProt Q02357-6 42-853).
T2 construct: ankyrin-R (AnkR), mouse, ANK repeats, residues 42-853, PCR amplified from a mouse muscle cDNA library; The thioredoxin-His6 tag was removed with HRV 3C protease 'when needed'; also called AnkR ANK repeats; source: E. coli BL21 (DE3), purified
T2 sequence (looked up): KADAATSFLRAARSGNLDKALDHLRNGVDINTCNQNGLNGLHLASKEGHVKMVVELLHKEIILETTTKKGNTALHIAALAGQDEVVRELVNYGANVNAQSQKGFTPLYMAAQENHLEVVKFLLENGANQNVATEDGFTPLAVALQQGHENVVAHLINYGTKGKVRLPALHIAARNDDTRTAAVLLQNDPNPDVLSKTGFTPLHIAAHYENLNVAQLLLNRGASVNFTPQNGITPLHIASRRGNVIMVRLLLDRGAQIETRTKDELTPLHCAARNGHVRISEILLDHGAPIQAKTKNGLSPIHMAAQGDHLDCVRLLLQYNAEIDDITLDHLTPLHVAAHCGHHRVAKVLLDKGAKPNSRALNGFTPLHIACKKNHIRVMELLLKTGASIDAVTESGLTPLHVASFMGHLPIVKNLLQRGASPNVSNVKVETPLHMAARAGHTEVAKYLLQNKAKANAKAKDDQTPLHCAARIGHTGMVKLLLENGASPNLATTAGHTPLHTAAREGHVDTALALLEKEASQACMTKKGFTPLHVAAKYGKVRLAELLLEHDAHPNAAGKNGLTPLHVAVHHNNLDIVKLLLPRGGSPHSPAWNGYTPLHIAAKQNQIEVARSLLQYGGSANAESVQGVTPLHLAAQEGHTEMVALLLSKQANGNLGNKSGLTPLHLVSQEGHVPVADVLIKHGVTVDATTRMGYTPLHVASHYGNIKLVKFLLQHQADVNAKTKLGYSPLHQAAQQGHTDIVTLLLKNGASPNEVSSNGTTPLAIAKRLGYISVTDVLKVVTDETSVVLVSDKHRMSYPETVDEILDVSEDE
The assay is described as above. The conditions noted are these: both partners purified.

The target in assay [3] is T3, AnkB_repeats (24 ANK repeats of human 220 kDa ankyrin-B, residues 28–873) (human, UniProt Q01484 28-873).
T3 construct: ankyrin-B (AnkB), human, 220 kDa isoform used as template, ANK repeats, residues 28-873; source: E. coli BL21 (DE3), purified
T3 sequence (looked up): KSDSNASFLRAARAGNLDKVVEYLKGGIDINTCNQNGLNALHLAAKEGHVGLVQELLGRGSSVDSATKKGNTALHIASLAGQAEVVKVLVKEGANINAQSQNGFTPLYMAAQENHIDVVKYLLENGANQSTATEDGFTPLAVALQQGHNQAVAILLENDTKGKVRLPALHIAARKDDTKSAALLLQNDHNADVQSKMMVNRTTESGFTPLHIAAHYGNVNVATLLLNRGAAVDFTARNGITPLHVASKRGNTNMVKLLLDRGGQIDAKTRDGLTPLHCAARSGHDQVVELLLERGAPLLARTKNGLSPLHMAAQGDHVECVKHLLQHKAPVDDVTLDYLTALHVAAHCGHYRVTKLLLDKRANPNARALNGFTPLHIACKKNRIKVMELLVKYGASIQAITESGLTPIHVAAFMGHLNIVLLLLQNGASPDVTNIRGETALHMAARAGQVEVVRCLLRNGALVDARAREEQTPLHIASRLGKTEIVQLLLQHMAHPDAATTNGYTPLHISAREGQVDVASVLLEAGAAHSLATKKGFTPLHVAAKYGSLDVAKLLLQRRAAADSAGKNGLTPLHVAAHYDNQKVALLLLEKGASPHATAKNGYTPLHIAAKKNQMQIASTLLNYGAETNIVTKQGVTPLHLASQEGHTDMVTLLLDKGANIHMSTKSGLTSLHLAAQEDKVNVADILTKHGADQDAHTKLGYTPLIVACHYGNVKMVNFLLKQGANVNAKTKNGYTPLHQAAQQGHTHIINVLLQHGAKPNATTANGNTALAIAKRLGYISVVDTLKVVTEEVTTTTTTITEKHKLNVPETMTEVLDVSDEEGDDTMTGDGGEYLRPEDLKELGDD
Described as above. The conditions noted are these: both partners purified.

The target in assay [4] is T4, AnkG_repeats (24 ANK repeats of rat 190 kDa ankyrin-G, residues 38–855) (rat, UniProt O70511 38-855).
T4 chain: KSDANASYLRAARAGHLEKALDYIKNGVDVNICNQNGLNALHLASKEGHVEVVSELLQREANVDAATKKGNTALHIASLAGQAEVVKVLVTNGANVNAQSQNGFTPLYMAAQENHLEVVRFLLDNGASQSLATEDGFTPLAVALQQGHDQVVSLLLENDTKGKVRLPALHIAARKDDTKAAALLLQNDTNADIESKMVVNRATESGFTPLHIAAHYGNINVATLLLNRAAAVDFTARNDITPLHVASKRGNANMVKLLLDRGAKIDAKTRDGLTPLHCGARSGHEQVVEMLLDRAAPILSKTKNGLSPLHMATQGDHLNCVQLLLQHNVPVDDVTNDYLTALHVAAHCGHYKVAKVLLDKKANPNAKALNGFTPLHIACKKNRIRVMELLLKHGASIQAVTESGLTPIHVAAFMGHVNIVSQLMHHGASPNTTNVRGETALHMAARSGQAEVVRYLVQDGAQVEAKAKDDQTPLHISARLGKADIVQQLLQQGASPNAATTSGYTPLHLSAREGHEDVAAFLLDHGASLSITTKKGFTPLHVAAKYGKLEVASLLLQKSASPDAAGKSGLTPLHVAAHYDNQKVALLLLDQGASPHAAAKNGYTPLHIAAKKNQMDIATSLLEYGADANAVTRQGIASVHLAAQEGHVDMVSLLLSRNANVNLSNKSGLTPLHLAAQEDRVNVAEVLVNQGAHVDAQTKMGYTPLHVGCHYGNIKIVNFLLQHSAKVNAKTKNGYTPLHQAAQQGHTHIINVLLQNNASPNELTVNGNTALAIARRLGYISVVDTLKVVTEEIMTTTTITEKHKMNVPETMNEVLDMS
Nature of the assay: ITC.

B1: Nav1.2 ABD-N (N-terminal 68-residue fragment of loop 2, residues 1035–1102) (domain or fragment)
chain: KALDEIKPLEDLNNKKDSCISNHTTIEIGKDLNYLKDGNGTTSGIGSSVEKYVVDESDYMSFINNPSL
The Kd is a measure of binding affinity in units of concentration. A low value points to tighter binding. As to B1, the Kd in assay [1] is approximately 8000 nM.

B2: AnkR entire C-terminal regulatory domain (residues 1529–1907) (domain or fragment, mouse, UniProt Q02357-6 1529-1907, looked up)
chain: RQSRNLKPERRHGDREYSLSPSQVNGYSSLQDELLSPASLQYALPSPLCADQYWNEVTVIDAIPLAATEHDTMLEMSDMQVWSAGLTPSLVTAEDSSLECSKAEDSDAIPEWKLEGAHSEDTQGPELGSQDLVEDDTVDSDATNGLADLLGQEEGQRSEKKRQEVSGTEQDTETEVSLVSGQQRVHARITDSPSVRQVLDRSQARTLDWDKQGSTAVHPQEATQSSWQEEVTQGPHSFQRRITTIQGPEPGALQEYEQVLVSTREHVQRGPPETGSPKAGKEPSLWAPESAFSQEVQGDELQNIPGEQVTEEQFTDEQGNIVTKKIIRKVVRQVDSSGAIDTQQHEEVELRGSGLQPDLIEGRKGAQIVKRASLKRGKQ
notes: also called full length AnkR C-terminal domain; C-terminal tail of AnkR; source: E. coli BL21 (DE3), purified
As to B2, in assay [2], the equilibrium dissociation constant (Kd) is approximately 1000 nM.

B3: AnkR_AS (48-residue auto-inhibitory segment of AnkR, residues 1577–1624) (domain or fragment, mouse, UniProt Q02357-6 1577-1624, looked up)
chain: CADQYWNEVTVIDAIPLAATEHDTMLEMSDMQVWSAGLTPSLVTAEDS
notes: Free AS in ITC; source: E. coli BL21 (DE3), purified
With B3, the Kd in assay [3] came to 400 nM; in assay [4], 460 nM.
